Measured values published in the supplement of paper PMC7125110.
± gives the standard error. For part of these data: Fewer inactive variants are shown than the library holds.

B1: glmS ribozyme (parent)
chain: AUAAAAGCGCCAGAACUACAGAAAUGUAGUUGACGAGGAGGAGGUUUAUCGAAUUUUCGGCGGAUGCCUCCAAA

What was measured:
Details in all cases: with glucosamine-6-phosphate
glucosamine-6-phosphate [1] = variants of: B1; assay: kcat; higher = faster cleavage; RNA array
Procedure, shortened: (§1)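 Glucosamine-6-phosphate (40 μM to 10 mM) in HEPES/KCl/Mg(OAc)2 buffer was flowed over sequenced MiSeq chips, and tiles were imaged over ~14 h. Barcoded ribozyme variants there had been transcribed in situ by E. coli RNA polymerase and were tracked through a hybridised Cy3 probe at 37 °C. One- or two-exponential decay fits to per-tile medians, normalised to baseline and to non-cleaving reference variants, gave kobs. kcat and KM came from weighted Michaelis–Menten fits across concentrations.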

glucosamine-6-phosphate [2] = variants of: B1; assay: KM; higher = weaker cofactor use; RNA array
Procedure, shortened: as §1

glucosamine-6-phosphate [3] = variants of: B1; assay: self-cleavage kobs at 40 uM GlcN6P; higher = faster cleavage; RNA array
Procedure, shortened: as §1

glucosamine-6-phosphate [4] = variants of: B1; assay: self-cleavage kobs at 160 uM GlcN6P; higher = faster cleavage; RNA array
Procedure, shortened: as §1

glucosamine-6-phosphate [5] = variants of: B1; assay: self-cleavage kobs at 640 uM GlcN6P; higher = faster cleavage; RNA array
Procedure, shortened: as §1

glucosamine-6-phosphate [6] = variants of: B1; assay: self-cleavage kobs at 2500 uM GlcN6P; higher = faster cleavage; RNA array
Procedure, shortened: as §1

glucosamine-6-phosphate [7] = variants of: B1; assay: self-cleavage kobs at 10000 uM GlcN6P; higher = faster cleavage; RNA array
Procedure, shortened: as §1

Variant | kcat (glucosamine-6-phosphate [1]) [s⁻¹] | KM (glucosamine-6-phosphate [2]) [µM] | self-cleavage kobs at 40 uM GlcN6P (glucosamine-6-phosphate [3]) [s⁻¹] | self-cleavage kobs at 160 uM GlcN6P (glucosamine-6-phosphate [4]) [s⁻¹] | self-cleavage kobs at 640 uM GlcN6P (glucosamine-6-phosphate [5]) [s⁻¹] | self-cleavage kobs at 2500 uM GlcN6P (glucosamine-6-phosphate [6]) [s⁻¹] | self-cleavage kobs at 10000 uM GlcN6P (glucosamine-6-phosphate [7]) [s⁻¹]
A15C U47A | 0.00412 ± 0.0012 | 2080 ± 870 | 0.000116 ± 1.4e-05 | 0.000266 ± 5.3e-05 | 0.000773 ± 0.00011 | 0.00226 ± 0.00034 | 0.00367 ± 0.00044
A12C U46G | 0.00332 ± 0.00078 | 1950 ± 600 | 8.74e-05 ± 1.3e-05 | 0.000221 ± 3.6e-05 | 0.000761 ± 0.00012 | 0.002 ± 0.00032 | 0.00278 ± 0.00064
G37C A42G | 7.11e-05 ± 9.9e-06 |  |  |  |  | 4.76e-05 ± 1.3e-05 | 5.87e-05 ± 1e-05
U46G U65A C71U | 0.00287 ± 0.00028 | 2140 ± 340 | 4.68e-05 ± 1.3e-05 | 0.000191 ± 6.8e-05 | 0.000735 ± 0.00016 | 0.00173 ± 0.00035 | 0.00224 ± 0.00038
G41A C71U | 0.000308 ± 7.8e-05 | 697 ± 340 | 3e-05 ± 6.9e-06 | 5.5e-05 ± 7.2e-06 | 0.000132 ± 1.5e-05 | 0.000414 ± 5e-05 | 0.00026 ± 3e-05
C67G C71U | 2.93e-05 ± 3.2e-06 |  |  |  |  | 3.07e-05 ± 8.1e-06 | 2.63e-05 ± 6.7e-06
U49A U69A | 5.14e-05 ± 1.9e-05 |  |  |  |  |  | 
C8U U49A | < 1e-05 |  | < 1e-05 |  | < 1e-05 | < 1e-05 | < 1e-05
G40A U49G | 0.000121 ± 1.7e-06 | 1210 ± 55 |  |  | 4.19e-05 ± 1e-05 |  | 0.000108 ± 1.3e-05
G60A C70G | 1.99e-05 ± 7.1e-06 |  |  |  |  |  | 
U31A A48G | 2.21e-05 ± 4.8e-06 |  |  |  |  | 3.3e-05 ± 1.1e-05 | 1.74e-05 ± 7.5e-06
C34G U56G C70U | 3.47e-05 ± 8.1e-06 |  |  |  | 3.21e-05 ± 1.5e-05 | 4.52e-05 ± 2.2e-05 | 
A52G C71G | 0.00014 ± 1.4e-05 | 431 ± 170 |  | 4.09e-05 ± 1.4e-05 | 7.87e-05 ± 1.1e-05 | 0.000157 ± 2.2e-05 | 0.000127 ± 1.2e-05
U46G G66U C67U | 0.000249 ± 2.4e-05 | 804 ± 230 |  |  | 0.000128 ± 3e-05 | 0.000172 ± 6.1e-05 | 0.00023 ± 3.9e-05
C16A C61G | 1.13e-05 ± 1.7e-08 | 158.6 ± 1.5 |  |  |  |  | 
G37A G62A | < 1e-05 |  | < 1e-05 |  | < 1e-05 |  | < 1e-05
U45G C68U | 0.00118 ± 0.00032 | 5190 ± 2400 |  | 5.23e-05 ± 1.3e-05 | 0.000145 ± 2.5e-05 | 0.000287 ± 5.6e-05 | 0.000826 ± 8.4e-05
G29U A48G | 1.1e-05 ± 1.6e-06 |  |  |  |  |  | 
